Publication PMC6614801

Tests used:
[1] = biological target: N-terminally His6-tagged NusA^AR2 (E. coli) (UniProt P0AFF6); test: SPR; Biacore, Sensor Chip NTA, 20°C; N-terminally His6-tagged NusA^AR2 immobilised; single cycle kinetics with SuhB variants at 25, 50, 100, 150 and 200 nM; 20 mM HEPES–NaOH pH 7.5, 50 mM NaCl, 1 mM DTT
[2] = tested on: SuhB (Escherichia coli DH5α); test: double filter binding; details: Hill slope fit, 50 nM RNA, Filter binding: 20 mM HEPES-NaOH pH 7.5, 50 mM NaCl, 1 mM DTT, room temperature, 20 min, SEC buffer not in material

Kd [1] [µM]	Substance	Kd [2] [µM]
141	SuhB^KL251/254AA (from UniProt P0ADG4 1-267) (natural protein)	
	rrnGnut RNA	3.2
